Assay: soluble on expression in E. coli; label from the status in PepcDB or PDB records

Row | Sequence | soluble on expression in E. coli
1 | MGSDKIHHHHHHMTNLTSTHEVLAIGRLGVDIYPLQSGVGLADVQSFGKYLGGSAANVSVAAARHGHNSALLSRVGNDPFGEYLLAELERLGVDNQYVATDQTFKTPVTFCEIFPPDDFPLYFYREPKAPDLNIESADVSLDDVREADILWFTLTGFSEEPSRGTHREILTTRANRRHTIFDLDYRPMFWESPEEATKQAEWALQHSTVAVGNKEECEIAVGETEPERAGRALLERGVELAIVKQGPKGVMAMTKDETVEVPPFFVDVINGLGAGDAFGGALCHGLLSEWPLEKVLRFANTAGALVASRLECSTAMPTTDEVEASLNQKV | not soluble
2 | MGSDKIHHHHHHMENQNHAFNYAYLLKQVKARVLLAQKKAIYTANEEMLSMYWDIGKLLSESQKQIGWGNNALEKLANDLKNDYPEMKGFSVRNCQFMIQFYNEYNQQLTNTKRAVSYLNNNEIVLPISKLGWSHNITLMQRTKDIKARYWYMIQCLKNGWSRDFLIEAIKQDYYHSHGALASNFDTTLPEIQAKQVKETLKDPYIFDMLTFTEEYDERDIELGLIKHIEKFLVEMGAGFAFMGRQYHIEVSEKDFYIDILMYNAFMHRYLVVELKRGEFQPEYIGKLNFYCSAVDDILCREGDNPTIGLLLCQNKDQIMAEYALRDVHKPIGISDYELGQALPKDIKSGLPSIEELENKLSRDLQDIDNKE | not soluble
3 | MNEYFFPKLTAVEALAPYRLRTTWSTGEVLEVDVGDILRKIPDLAPILDPEAFARVHIAEWEGSVEWFDTEFGRDNVYAWAKEQAGEVSHEMFGDWMHRNNLSLTTAAEALGISRRMVSYYRTAHKIIPRTIWLACLGWEATRPETKTLPRTLPAAYAKGVSASLS | soluble
4 | MAMHPRKDWYELTRATNWTPSYVTEEQLFPERMSGHMGIPLEKWESYDEPYKTSYPEYVSIQREKDAGAYSVKAALERAKIYENSDPGWISTLKSHYGAIAVGEYAAVTGEGRMARFSKAPGNRNMATFGMMDELRHGQLQLFFPHEYCKKDRQFDWAWRAYHSNEWAAIAAKHFFDDIITGRDAISVAIMLTFSFETGFTNMQFLGLAADAAEAGDYTFANLISSIQTDESRHAQQGGPALQLLIENGKREEAQKKVDMAIWRAWRLFAVLTGPVMDYYTPLEDRSQSFKEFMYEWIIGQFERSLIDLGLDKPWYWDLFLKDIDELHHSYHMGVWYWRTTAWWNPAAGVTPEERDWLEEKYPGWNKRWGRCWDVITENVLNDRMDLVSPETLPSVCNMSQIPLVGVPGDDWNIEVFSLEHNGRLYHFGSEVDRWVFQQDPVQYQNHMNIVDRFLAGQIQPMTLEGALKYMGFQSIEEMGKDAHDFAWADKCKPAMKKSA | soluble
5 | MDFSCGAASIATLLNNFYGRHYSEAEILDKMDKTQMRASFDDMQRIMPELGFEAQGYALPFEQLVQLKIPVIVYLKYRKNNHFSVLNGINGETVLLADPSLGHVSMSKSQFLSAWKTRDGEMEGKILAIVPKNTDFVRNQMFFNKNPVRQTRFTVEQIQMRQKR | not soluble
6 | MGHHHHHHSHMQWSKEEEAAARKKVKENSAVRVLLEEQVKYEREASKYWDTFYKIHKNKFFKDRNWLLREFPEILPVDQKPEEKARESSWDHVKTSATNRFSRMHCPTVPDEKNHYEKSSGSSEGQSKTESDFSNLDSEKHKKGPMETGLFPGSNATFRILEVGCGAGNSVFPILNTLENSPESFLYCCDFASGAVELVKSHSSYRATQCFAFVHDVCDDGLPYPFPDGILDVILLVFVLSSIHPDRTLFI | not soluble
7 | MGSDKIHHHHHHMSEAFLRFDGISVEFPGVKALDEVSFSARAGEVHALMGENGAGKSTLLKVLSGVNRPSSGQLWIDGQAHVFANAREALAHGIAIIYQELTLSPNLSVAENLLLGQLPERRGFIDRRTMKARAREILEELGEGDIDPATKVRELSIGQQQMIEIGRALLRDARIIAFDEPTSSLSVQETRQLKRIVARLRDEGRVVLYVTHRMEEVFEMCDAVTVFRDGRHIRTHETLEGLDHDMLVGEMVGRQIDDVYGFRPRDIGDVLMRIDGLQGRGVNEPVNLEVRRGEVLGLFGLVGAGRSELMRLVCGVEKASRGQVALRGETRVFASPHQAIRAGIAMCPEDRKSQGIFPVASVSDNLNISCRRFFRRWGMFRHAARETDNAKTYIQRLSIKTPSHRTPINTLSGGNQQKVILGRWLAEEIDLFVMDEPTRGIDVGARRDIYALLYDLAEQGKGVIVISSDLAEVSSICDRIGVMRDGVLVDIVPREQATQARLLGLALPA | not soluble
8 | MVASCKSTSQPVSLSQKDSSPDFNRCRNDSEDTVNLTGSGDIYIDKESSQKALDDLLRKVTLDGGISLKDAKSSEILAAYERKIQMLQLELQMKNVPKPVVEIETTSQKIRDLAQECEALRDSNKQLTDHMTRGNLEINQLKVQLEEVKQKCDSIETSLGMCITEKAGLKTQLTESLQNAERNVHTAQNEISKLNTELAQSVTRIELFLAENRELKQEFEEKVVECEVLKEHIRQIDLELKNKQSDMERALLQISAAEQKAAKKELELIEAEKHLKLYESRLSDRERDLNAKNLEIDRLKLDLDAARRNLQKLEQMREAMLSLASSSSN | not soluble
9 | MGSDKIHHHHHHDNNVVVLNGSGRSGSNGYAFYKWLLINHPEFNVTLVEPWPSSHLKWETWQKIGAARYVITTHQPFKVRKHQINVQLWHGVPLKRMGIMANNTRYKDNKRNEKLWHKNADIVASSSDLYETLMSACMAIESKKYQKLGFPRLDLLSKPVISKKELLKDLFDQEDEQAAIGIYMPTFRYELEDKSIMQKIKEGNFFAFADFDGEKLNKELKKRHQYLIVKLHPYEMRLFDNFKSQYSNISFLNNDYLFDHNYDLYELLGDTDFLMTDFSSIYFDYLHLNKPIVFVTNFLKQYEKTRGLLMGPYSEITPGISVNSEQELINNLDHLDNQQIVNRRIYWLNLTNQVHGDSYCENVFKYMTQEYRG | not soluble
10 | TYDGKVESVVLGFATEVPEPWVTEKLSITEEELVYKIIRLRIIEDVPSIIEYTWMPVALIPNLTMKELKVSIYQYISEQLHQKIQSARVSISGIRPSPLEKKYLNLTDNDFLMRAEQIAYLGNGHIFEYSIANHIPSEFTFETVLIAEK | not soluble
11 | MTIATIDIGGTGIKFASLTPDGKILDKTSISTPENLEDLLAWLDQRLSEQDYSGIAMSVPGAVNQETGVIDGFSAVPYIHGFSWYEALSSYQLPVHLENDANCVGLSELLAHPELENAACVVIGTGIGGAMIINGRLHRGRHGLGGEFGYMTTLAPAEKLNNWSQLASTGNMVRYVIEKSGHTDWDGRKIYQEAAAGNILCQEAIERMNRNLAQGLLNIQYLIDPGVISLGGSISQNPDFIQGVKKAVEDFVDAYEEYTVAPVIQACTYHADANLYGALVNWLQEEKQW | soluble
12 | MNAIADVQSSRDLRNLPINQVGIKDLRFPITLKTAEGTQSTVARLTMTVYLPAEQKGTHMSRFVALMEQHTEVLDFAQLHRLTAEMVALLDSRAGKISVSFPFFRKKTAPVSGIRSLLDYDVSLTGEMKDGAYGHSMKVMIPVTSLCPCSKEISQYGAHNQRSHVTVSLTSDAEVGIEEVIDYVETQASCQLYGLLKRPDEKYVTEKAYENPKFVEDMVRDVATSLIADKRIKSFVVESENFESIHNHSAYAYIAYP | soluble
13 | MAHHHHHHVDDDDKMFSTQVNSSLTSPTGRGSMAAPSLHPSLGPGIGSPGQLHSPISTLSSPINGMGPPFSVISSPMGPHSMSVPTTPTLGFSTGSPQLSSPMNPVSSSEDIKPPLGLNGVLKVPAHPSGNMASFTKHICAICGDRSSGKHYGVYSCEGCKGFFKRTVRKDLTYTCRDNKDCLIDKRQRNRCQYCRYQKCLAMGMKREAVQEERQRGKDRNENEVESTSSANEDMPVERILEAELAVEPKTETYVEANMGLNPSSPNDPVTNICQAADKQLFTLVEWAKRIPHFSELPLDDQVILLRAGWNELLIASFSHRSIAVKDGILLATGLHVHRNSAHSAGVGAIFDRVLTELVSKMRDMQMDKTELGCLRAIVLFNPDSKGLSNPAEVEALREKVYASLEAYCKHKYPEQPGRFAKLLLRLPALRSIGLKCLEHLFFFKLIGDTPIDTFLMEMLEAPHQMT | soluble
14 | MQREQTKVFKRVAGIKDKAAIKTLISAAYRQIFERDIAPYIAQNEFSGWESKLGNGEITVKEFIEGLGYSNLYLKEFYTPYPNTKVIELGTKHFLGRAPIDQAEIRKYNQILATQGIRAFINALVNSQEYNEVFGEDTVPYRRFPTLPALEHHHHHH | soluble

Reference: the DeepSol protein solubility set
